Test results taken from the supplement of paper PMC9112550, “Optimization of the antimicrobial peptide Bac7 by deep mutational scanning” (BMC Biology, 2022).

tested on: Escherichia coli TOP10; assay: shrunken log2 fold change of peptide-encoding DNA abundance (4.5 h post-induction vs induction); higher = less antimicrobial activity (less host growth inhibition); details: time post-induction: 4.5 h; library: site-saturation at positions 5, 18, 19, 20
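Note: peptides expressed intracellularly from a pBAD plasmid library in pooled LB shake-flask culture, induced with 0.3% L-arabinose, DNA abundance read by NGS, three biological replicates, DESeq2 with apeglm shrinkage.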

Row | Sequence | shrunken log2 fold change
1 | RRIRARPPRLPRPRPRPFKSPRP | -0.549
2 | RRIRARPPRLPRPRPRPFMFPRP | 0.189
3 | RRIRARPPRLPRPRPRPFNEPRP | -0.1
4 | RRIRARPPRLPRPRPRPFNFPRP | -0.0477
5 | RRIRARPPRLPRPRPRPFPHPRP | 0.146
6 | RRIRARPPRLPRPRPRPFQYPRP | 0.0189
7 | RRIRARPPRLPRPRPRPFSGPRP | -0.00374
8 | RRIRARPPRLPRPRPRPFSRPRP | -0.145
9 | RRIRARPPRLPRPRPRPFSWPRP | -0.0923
10 | RRIRARPPRLPRPRPRPFVFPRP | 0.166
11 | RRIRARPPRLPRPRPRPFVHPRP | -0.207
12 | RRIRARPPRLPRPRPRPGAAPRP | 1.1
13 | RRIRARPPRLPRPRPRPGCNPRP | 0.252
14 | RRIRARPPRLPRPRPRPGEGPRP | 1.02
15 | RRIRARPPRLPRPRPRPGELPRP | 0.333
16 | RRIRARPPRLPRPRPRPGEQPRP | 0.135
17 | RRIRARPPRLPRPRPRPGETPRP | 0.238
18 | RRIRARPPRLPRPRPRPGFCPRP | 0.572
19 | RRIRARPPRLPRPRPRPGHPPRP | 0.543
20 | RRIRARPPRLPRPRPRPGHVPRP | 0.0499
21 | RRIRARPPRLPRPRPRPGIAPRP | 0.331
22 | RRIRARPPRLPRPRPRPGITPRP | 0.335

Row | Sequence | shrunken log2 fold change
23 | RRIRARPPRLPRPRPRPGKDPRP | 0.36
24 | RRIRARPPRLPRPRPRPGLGPRP | 1.16
25 | RRIRARPPRLPRPRPRPGLLPRP | 0.547
26 | RRIRARPPRLPRPRPRPGMLPRP | 0.334
27 | RRIRARPPRLPRPRPRPGNIPRP | -0.239
28 | RRIRARPPRLPRPRPRPGNPPRP | 0.167
29 | RRIRARPPRLPRPRPRPGNVPRP | 0.332
30 | RRIRARPPRLPRPRPRPGPIPRP | 0.341
31 | RRIRARPPRLPRPRPRPGQIPRP | 0.216
32 | RRIRARPPRLPRPRPRPGQSPRP | 0.266
33 | RRIRARPPRLPRPRPRPGQYPRP | 0.0253
34 | RRIRARPPRLPRPRPRPGREPRP | 0.388
35 | RRIRARPPRLPRPRPRPGRQPRP | 0.706
36 | RRIRARPPRLPRPRPRPGRRPRP | 0.339
37 | RRIRARPPRLPRPRPRPGSAPRP | 0.444
38 | RRIRARPPRLPRPRPRPGSQPRP | 0.368
39 | RRIRARPPRLPRPRPRPGTHPRP | 0.173
40 | RRIRARPPRLPRPRPRPGTMPRP | 0.351
41 | RRIRARPPRLPRPRPRPGTTPRP | 0.143
42 | RRIRARPPRLPRPRPRPGWNPRP | 0.545
43 | RRIRARPPRLPRPRPRPHAGPRP | 0.122
44 | RRIRARPPRLPRPRPRPHCYPRP | 0.101

Row | Sequence | shrunken log2 fold change
45 | RRIRARPPRLPRPRPRPHDRPRP | 0.128
46 | RRIRARPPRLPRPRPRPHERPRP | 0.0956
47 | RRIRARPPRLPRPRPRPHETPRP | 0.062
48 | RRIRARPPRLPRPRPRPHGKPRP | 0.175
49 | RRIRARPPRLPRPRPRPHGVPRP | 0.0905
50 | RRIRARPPRLPRPRPRPHKKPRP | -0.163
51 | RRIRARPPRLPRPRPRPHLAPRP | 0.298
52 | RRIRARPPRLPRPRPRPHLLPRP | -0.0598
53 | RRIRARPPRLPRPRPRPHLNPRP | 0.102
54 | RRIRARPPRLPRPRPRPHMMPRP | -0.12
55 | RRIRARPPRLPRPRPRPHMYPRP | -0.149
56 | RRIRARPPRLPRPRPRPHNEPRP | -0.258
57 | RRIRARPPRLPRPRPRPHNQPRP | -0.00392
58 | RRIRARPPRLPRPRPRPHPIPRP | 0.286
59 | RRIRARPPRLPRPRPRPHPPPRP | 0.706
60 | RRIRARPPRLPRPRPRPHRGPRP | 0.14
61 | RRIRARPPRLPRPRPRPHRYPRP | -0.147
62 | RRIRARPPRLPRPRPRPHSGPRP | -0.0576
63 | RRIRARPPRLPRPRPRPHTLPRP | -0.213
64 | RRIRARPPRLPRPRPRPHVKPRP | -0.289
65 | RRIRARPPRLPRPRPRPHVRPRP | -0.0112
66 | RRIRARPPRLPRPRPRPHWNPRP | -0.0187

Row | Sequence | shrunken log2 fold change
67 | RRIRARPPRLPRPRPRPIAAPRP | 0.925
68 | RRIRARPPRLPRPRPRPIAEPRP | 0.42
69 | RRIRARPPRLPRPRPRPIAPPRP | 0.53
70 | RRIRARPPRLPRPRPRPICKPRP | -0.159
71 | RRIRARPPRLPRPRPRPICWPRP | 0.231
72 | RRIRARPPRLPRPRPRPIDNPRP | -0.0987
73 | RRIRARPPRLPRPRPRPIELPRP | 0.00186
74 | RRIRARPPRLPRPRPRPIFDPRP | 0.0844
75 | RRIRARPPRLPRPRPRPIGTPRP | 0.0903
76 | RRIRARPPRLPRPRPRPIHSPRP | -0.184
77 | RRIRARPPRLPRPRPRPIIKPRP | -0.09
78 | RRIRARPPRLPRPRPRPILDPRP | 0.229
79 | RRIRARPPRLPRPRPRPILPPRP | 0.0507
80 | RRIRARPPRLPRPRPRPIMQPRP | -0.0531
81 | RRIRARPPRLPRPRPRPIMRPRP | 0.491
82 | RRIRARPPRLPRPRPRPINHPRP | -0.376
83 | RRIRARPPRLPRPRPRPINSPRP | -0.213
84 | RRIRARPPRLPRPRPRPIPRPRP | 0.526
85 | RRIRARPPRLPRPRPRPIQKPRP | 0.00369
86 | RRIRARPPRLPRPRPRPIQYPRP | -0.463
87 | RRIRARPPRLPRPRPRPIRAPRP | 0.242
88 | RRIRARPPRLPRPRPRPIRPPRP | 0.237

Row | Sequence | shrunken log2 fold change
89 | RRIRARPPRLPRPRPRPISGPRP | -0.00122
90 | RRIRARPPRLPRPRPRPITGPRP | -0.00407
91 | RRIRARPPRLPRPRPRPITPPRP | -0.0533
92 | RRIRARPPRLPRPRPRPIVKPRP | 0.0456
93 | RRIRARPPRLPRPRPRPIVLPRP | -0.121
94 | RRIRARPPRLPRPRPRPIYPPRP | -0.387
95 | RRIRARPPRLPRPRPRPKAFPRP | 0.269
96 | RRIRARPPRLPRPRPRPKDKPRP | 0.0564
97 | RRIRARPPRLPRPRPRPKDMPRP | 0.263
98 | RRIRARPPRLPRPRPRPKDTPRP | 0.293
99 | RRIRARPPRLPRPRPRPKFSPRP | 0.173
100 | RRIRARPPRLPRPRPRPKGPPRP | 0.212
101 | RRIRARPPRLPRPRPRPKHFPRP | 4.03
102 | RRIRARPPRLPRPRPRPKICPRP | 0.0997
103 | RRIRARPPRLPRPRPRPKIMPRP | -0.0664
104 | RRIRARPPRLPRPRPRPKIYPRP | -0.161
105 | RRIRARPPRLPRPRPRPKKPPRP | 0.0922
106 | RRIRARPPRLPRPRPRPKLCPRP | 0.225
107 | RRIRARPPRLPRPRPRPKLDPRP | 0.655
108 | RRIRARPPRLPRPRPRPKMAPRP | 0.291
109 | RRIRARPPRLPRPRPRPKNNPRP | -0.0541
